B1: TatC with C-terminal hexahistidine tag, wild type (TatABC system) [E. coli] / TatA [E. coli] (parent)
chain 1: MGGISIWQLLIIAVIVVLLFGTKKLGSIGSDLGASIKGFKKAMSDDEPKQDKTSQDADFTAKTIADKQADTNQEQAKTEDAKRHDKEQV
chain 2: MSVEDTQPLITHLIELRKRLLNCIIAVIVIFLCLVYFANDIYHLVSAPLIKQLPQGSTMIATDVASPFFTPIKLTFMVSLILSAPVILYQVWAFIAPALYKHERRLVVPLLVSSSLLFYIGMAFAYFVVFPLAFGFLANTAPEGVQVSTDIASYLSFVMALFMAFGVSFEVPVAIVLLCWMGITSPEDLRKKRPYVLVGAFVVGMLLTPPDVFSQTLLAIPMYCLFEIGVFFSRFYVGKGRNREEENDAEAESEKTEE
B2: TatC with C-terminal hexahistidine tag, wild type (TatABC system) [E. coli] / TatB [E. coli] (parent)
chain 1: MFDIGFSELLLVFIIGLVVLGPQRLPVAVKTVAGWIRALRSLATTVQNELTQELKLQEFQDSLKKVEKASLTNLTPELKASMDELRQAAESMKRSYVANDPEKASDEAHTIHNPVVKDNEAAHEGVTPAAAQTQASSPEQKPETTPEPVVKPAADAEPKTAAPSPSSSDKP
chain 2: B1 chain 2

Variants of: B1
Assay: affinity purification (H6-tagged TatC) with SDS-PAGE/Western-blot band quantification
Conditions: eight replicates, read off a plot

| response [signal ratio] | Variant |
| --- | --- |
| 1.6 | chain 2 Y154A |
| 0.67 | chain 2 L189A |
| 1.3 | chain 2 I50Y |

Variants of: B2
Assay: as above
Conditions: eight replicates, read off a plot

| response [signal ratio] | Variant |
| --- | --- |
| 0.81 | chain 2 Y154A |
| 0.97 | chain 2 L189A |
| 0.86 | chain 2 I50Y |

Reference: publication PMC11178869
